12 molecules from patent US20240301067A1 (WUXI BIOLOGICS IRELAND, published 2024) can be followed below.

Residue numbers refer to the chain shown, from its start.

B1: AP17R1-2H2-Z1 (VHH)
VHH: QVQLVESGGGVVQPGGSLRLSCAASDSIDSLVNMGWYRQAPGKQRELVALIANYITHYADFVKGRFTISRDNSKNTLYLQMNSLRAEDTAVYYCYARNIIVDYWGQGTLVTVSS
notes: also called the humanized AP17R1-2H2; not shown: his- and c-Myc-tag from vector pETbac
B2: AP17R1-2H2-Z1-R1-29B6 (VHH)
VHH: B1 VHH with I100Y
notes: not shown: his- and c-Myc-tag from vector pETbac
B3: AP17R1-2H2-Z1-R1-27A2 (VHH)
VHH: B1 VHH with N98S
notes: as for B2
B4: AP17R1-2H2-Z1-R1-14A1 (VHH)
VHH: B1 VHH with N53T
notes: as for B2
B5: AP17R1-2H2-Z1-R1-29B2 (VHH)
VHH: B1 VHH with I100R
notes: as for B2
B6: AP17R1-2H2-Z1-R1-14F1 (VHH)
VHH: B1 VHH with N53Y
notes: as for B2
B7: AP17R1-2H2-Z1-R1-4B2 (VHH)
VHH: B1 VHH with D29S
notes: as for B2
B8: AP17R1-2H2-Z1-R1-6E1 (VHH)
VHH: B1 VHH with L31M
notes: as for B2
B9: AP17R1-2H2-Z1-R1-14B3 (VHH)
VHH: B1 VHH with N53R
notes: as for B2
B10: AP17R1-2H2-Z1-R1-14F3 (VHH)
VHH: B1 VHH with N53W
notes: as for B2
B11: AP17R1-2H2-Z1-R1-30D3 (VHH)
VHH: B1 VHH with V101E
notes: as for B2
B12: AP17R1-2H2-Z1-R1-4D8 (VHH)
VHH: B1 VHH with D29Q
notes: as for B2

T3 sequence (B0LAJ3 entry or part of it limits assumed): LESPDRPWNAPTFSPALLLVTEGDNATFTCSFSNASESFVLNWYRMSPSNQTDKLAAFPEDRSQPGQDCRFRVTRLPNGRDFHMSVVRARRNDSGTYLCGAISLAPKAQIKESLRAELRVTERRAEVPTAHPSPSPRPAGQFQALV

The target of one test is T1, Human PD-1 extracellular domain, hFc tag (human, UniProt Q15116 25-170).
T1 construct: extracellular domain; also called hPro1.ECD.hFc; not shown: human Fc tag at C-terminus
T1 sequence (Q15116 25-170): as the sequence (B0LAJ3 entry or part of it limits assumed) above, with E2D, A10P, L19V, A35T, R75Q, A144T counted along it
The experiment in a line: SPR Biacore 8K; PD-1-hFc captured on anti-human Fc chip, VHH injected; 1:1 fit. As to the method:
(§1) To screen WBP3056 VHH antibodies from affinity maturation, koff to hPro1.ECD.hFc, mPro1.ECD.hFc and cynoPro1.ECD.hFc (AcrobioSystems) was detected by SPR assay using Biacore 8K. hPro1.ECD.hFc, mPro1.ECD.hFc or cynoPro1.ECD.hFc (AcrobioSystems) was captured on an anti-human IgG Fc antibody immobilized CM5 sensor chip. Each VHH antibody was injected over the sensor chip at a flow rate of 30 uL/min for an association phase of 120 s, followed by 150 s dissociation. The association and dissociation curve was fit to a 1:1 model using Langmuir analysis.
(In SPR one partner is held on a chip, and binding of the other changes the refractive index at the surface.)
Consider B1, for which the Kd – broadly, the concentration at which binding is half-saturated – came out at 12.7 nM; the koff – broadly, a measure of how fast the partners let go of each other – was 0.00392 s⁻¹; the on-rate constant (kon) (in general, a measure of how fast the partners come together) is 307000 M⁻¹ s⁻¹.

Consider B2, for which the dissociation constant Kd turned out to be 7.01 nM, the off-rate constant (koff) worked out at 0.00298 s⁻¹ and the kon is 425000 M⁻¹ s⁻¹.

Molecule B3 registered a Kd of 8.56 nM, a dissociation rate constant (koff) of 0.00331 s⁻¹ and a kon of 387000 M⁻¹ s⁻¹.

Take B4: binding was put at a Kd of 2.06 nM, the off-rate constant (koff) turned out to be 0.00112 s⁻¹ and the kon came out at 543000 M⁻¹ s⁻¹.

With B5, the Kd came to 8.54 nM, the off-rate (koff) was 0.00347 s⁻¹ and the kon is 406000 M⁻¹ s⁻¹.

For the molecule B6, the dissociation constant Kd came to 3.28 nM, the koff came out at 0.00135 s⁻¹ and the kon is 411000 M⁻¹ s⁻¹.

In turn, B7 displayed a dissociation constant (Kd) of 9.19 nM, a koff of 0.00413 s⁻¹ and a kon of 450000 M⁻¹ s⁻¹.

With B8, the Kd was 7.48 nM, the koff was found to be 0.00328 s⁻¹ and the kon stood at 439000 M⁻¹ s⁻¹.

With B9, the Kd was determined as 5.09 nM, the koff amounted to 0.00249 s⁻¹ and the on-rate constant (kon) came to 489000 M⁻¹ s⁻¹.

Regarding B10, the Kd came out at 2.35 nM, the koff is 0.00109 s⁻¹ and the kon came out at 465000 M⁻¹ s⁻¹.

Molecule B11 yielded a Kd of 6.79 nM, a koff of 0.00282 s⁻¹ and an on-rate (kon) of 416000 M⁻¹ s⁻¹.

Molecule B12 displayed a Kd of 9.49 nM, a koff of 0.00396 s⁻¹ and an on-rate constant (kon) of 417000 M⁻¹ s⁻¹.

A further test concerns the target T2, Mouse PD-1 extracellular domain, hFc tag (mouse, UniProt Q02242 25-169).
T2 construct: extracellular domain; also called mPro1.ECD.hFc; not shown: human Fc tag at C-terminus
T2 sequence (looked up): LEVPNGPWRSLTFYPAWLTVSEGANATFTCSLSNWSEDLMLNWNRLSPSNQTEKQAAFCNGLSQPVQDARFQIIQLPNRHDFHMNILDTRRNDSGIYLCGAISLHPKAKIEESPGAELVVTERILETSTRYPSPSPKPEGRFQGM
The description is as above. As to the method:
as §1
In turn, B1 yielded a dissociation constant Kd of 66.2 nM, a koff of 0.0136 s⁻¹ and an on-rate (kon) of 205000 M⁻¹ s⁻¹.

As for B2, the affinity, expressed as Kd, was 39.1 nM; the koff came out at 0.0108 s⁻¹; the kon turned out to be 277000 M⁻¹ s⁻¹.

B3 returned a Kd of 33.7 nM, a koff of 0.00894 s⁻¹ and an on-rate constant (kon) of 265000 M⁻¹ s⁻¹.

B4 came in with an equilibrium dissociation constant (Kd) of 12.3 nM, an off-rate (koff) of 0.0047 s⁻¹ and a kon of 381000 M⁻¹ s⁻¹.

B5 yielded a dissociation constant Kd of 55.8 nM, a koff of 0.0148 s⁻¹ and a kon of 264000 M⁻¹ s⁻¹.

B6 had a dissociation constant Kd of 7.8 nM, an off-rate constant (koff) of 0.00218 s⁻¹ and a kon of 280000 M⁻¹ s⁻¹.

Turning to B7, the Kd is 34.6 nM, the koff stood at 0.0101 s⁻¹ and the kon is 292000 M⁻¹ s⁻¹.

The molecule B8 yielded a Kd of 50.8 nM, a koff of 0.0146 s⁻¹ and a kon of 287000 M⁻¹ s⁻¹.

In turn, B9 had a Kd of 17.3 nM, a dissociation rate constant (koff) of 0.00596 s⁻¹ and an on-rate constant (kon) of 344000 M⁻¹ s⁻¹.

Consider B10, for which the affinity, expressed as Kd, was 27.1 nM; the koff amounted to 0.00732 s⁻¹; the kon turned out to be 270000 M⁻¹ s⁻¹.

B11 returned a Kd of 42.5 nM, a koff of 0.0118 s⁻¹ and a kon of 277000 M⁻¹ s⁻¹.

As for B12, the Kd was determined as 33.7 nM, the koff was found to be 0.00955 s⁻¹ and the association rate constant (kon) stood at 284000 M⁻¹ s⁻¹.

A further test has as its target T3, Cynomolgus PD-1 extracellular domain, hFc tag (cynomolgus, UniProt B0LAJ3 25-170).
T3 construct: Bought; also called cynoPro1.ECD.hFc; cyno PD-1 ECD protein
The test is described as above. As to the method: as §1
B1 displayed a dissociation constant (Kd) of 36.4 nM, an off-rate constant (koff) of 0.00863 s⁻¹ and a kon of 237000 M⁻¹ s⁻¹.

The molecule B2 had a dissociation constant (Kd) of 20 nM, a koff of 0.00646 s⁻¹ and a kon of 323000 M⁻¹ s⁻¹.

Molecule B3 yielded a Kd of 24.6 nM, a koff of 0.00745 s⁻¹ and a kon of 302000 M⁻¹ s⁻¹.

Molecule B4 displayed a Kd of 5.04 nM, a koff of 0.00213 s⁻¹ and an on-rate (kon) of 424000 M⁻¹ s⁻¹.

Regarding B5, the affinity, expressed as Kd, was 25.7 nM; the off-rate constant (koff) is 0.00817 s⁻¹; the kon is 318000 M⁻¹ s⁻¹.

With B6, binding was characterised by a dissociation constant (Kd) of 8.98 nM, the off-rate (koff) came out at 0.00277 s⁻¹ and the kon was determined as 309000 M⁻¹ s⁻¹.

The molecule B7 came in with a Kd of 25.5 nM, an off-rate constant (koff) of 0.00879 s⁻¹ and a kon of 345000 M⁻¹ s⁻¹.

With B8, the Kd came to 22.1 nM, the koff came out at 0.00754 s⁻¹ and the on-rate (kon) worked out at 341000 M⁻¹ s⁻¹.

For B9, the equilibrium dissociation constant (Kd) came out at 13.2 nM, the koff came to 0.00484 s⁻¹ and the kon came to 366000 M⁻¹ s⁻¹.

Molecule B10 yielded a Kd of 7.18 nM, a koff of 0.00247 s⁻¹ and a kon of 344000 M⁻¹ s⁻¹.

Take B11: the affinity, expressed as Kd, was 19.2 nM; the dissociation rate constant (koff) amounted to 0.00624 s⁻¹; the association rate constant (kon) came to 325000 M⁻¹ s⁻¹.

Regarding B12, the Kd was 26 nM, the off-rate (koff) came to 0.00833 s⁻¹ and the on-rate constant (kon) amounted to 320000 M⁻¹ s⁻¹.
